Source: patent US20150344570A1 (published 2015)
Positions count from the first letter of the chain named. Names may count otherwise.

T1: FcgRIIb (FcγRIIb) extracellular domain with C-terminal His tag (human, UniProt P31994 43-217)
T1 construct: extracellular domain; not shown: His tag attached to the C terminus
T1 sequence (looked up): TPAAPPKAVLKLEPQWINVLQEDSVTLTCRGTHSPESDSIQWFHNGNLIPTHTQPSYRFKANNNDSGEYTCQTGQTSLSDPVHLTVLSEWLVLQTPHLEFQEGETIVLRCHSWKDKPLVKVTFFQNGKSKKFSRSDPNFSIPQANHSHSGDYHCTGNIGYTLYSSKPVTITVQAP

B1: H240-Kn061/H240-Hl071/L73-k0 variant with W236Y in H240-Kn061 (antibody, human IgG1, kappa)
heavy 1: QDQLVQSGAEVKKPGASVKVSCKASGFNIKDTYIQWVRQAPGQGLEWMGRIDPLRKQTKYREKFEGRVTITADTSTNTAYMELSSLRSEDTAVYYCVRSGREFDYWGQGTLVTVSSASTKGPSVFPLAPSSKSTSGGTAALGCLVKDYFPEPVTVSWNSGALTSGVHTFPAVLQSSGLYSLSSVVTVPSSSLGTQTYICNVNHKPSNTKVDKKVEPKSCDKTHTCPPCPAPEYYYGPSVFLFPPKPKDTLMISRTPEVTCVVVDVSDEDPEVKFNWYVDGVEVHNAKTKPREEQYNATYRVVSVLTVLHQDWLNGKEYKCKVSNKALPAPIEKTISKAKGQPREPQVCTLPPSRDELTKNQVSLWCLVKGFYPSDIAVEWESNGQPENNYKTTPPVLDSDGSFFLYSKLTVDKSRWQQGNVFSCSVMHEALHNHYTQKSLSLSP
heavy 2: QDQLVQSGAEVKKPGASVKVSCKASGFNIKDTYIQWVRQAPGQGLEWMGRIDPLRKQTKYREKFEGRVTITADTSTNTAYMELSSLRSEDTAVYYCVRSGREFDYWGQGTLVTVSSASTKGPSVFPLAPSSKSTSGGTAALGCLVKDYFPEPVTVSWNSGALTSGVHTFPAVLQSSGLYSLSSVVTVPSSSLGTQTYICNVNHKPSNTKVDKKVEPKSCDKTHTCPPCPAPELLGGPSVFLFPPKPKDTLMISRTPEVTCVVVDVSHEDPEVKFNWYVDGVEVHNAKTKPREEQYNSTYRVVSVLTVLHQDWLNGKEYKCKVSNDALPMPIEETISKAKGQPREPQVYTLPPSRCELTKNQVSLSCAVKGFYPSDIAVEWESNGQPENNYKTTPPVLDSDGSFFLVSKLTVDKSRWQQGNVFSCSVMHEALHNHYTQKSLSLSP
light: DIQMTQSPSSLSASVGDRVTITCRASQDIHKYIAWYQQKPGQAPRLLIQYTSTLQPGVPSRFSGSGSGTDYTFTISSLQPEDIATYYCLQYEQLRTFGGGTKVEIKRTVAAPSVFIFPPSDEQLKSGTASVVCLLNNFYPREAKVQWKVDNALQSGNSQESVTEQDSKDSTYSLSSTLTLSKADYEKHKVYACEVTHQGLSSPVTKSFNRGEC
notes: anti-epiregulin heterodimerized IgG1; also called H240-Kn061 W236Y
B2: H240-Kn061/H240-Hl071/L73-k0 variant with Y234S in H240-Kn061 (antibody, human IgG1, kappa)
heavy 1: B1 heavy 1 with Y233S, Y235W
heavy 2: B1 heavy 2
light: B1 light
notes: anti-epiregulin heterodimerized IgG1; also called H240-Kn061 Y234S
B3: H240-Kn061/H240-Hl071/L73-k0 variant with Y234G in H240-Kn061 (antibody, human IgG1, kappa)
heavy 1: B1 heavy 1 with Y233G, Y235W
heavy 2: B1 heavy 2
light: B1 light
notes: anti-epiregulin heterodimerized IgG1; also called H240-Kn061 Y234G
B4: H240-Kn061/H240-Hl071/L73-k0 variant with Y234A in H240-Kn061 (antibody, human IgG1, kappa)
heavy 1: B1 heavy 1 with Y233A, Y235W
heavy 2: B1 heavy 2
light: B1 light
notes: anti-epiregulin heterodimerized IgG1; also called H240-Kn061 Y234A
B5: H240-Kn061/H240-Hl071/L73-k0 variant with Y234H in H240-Kn061 (antibody, human IgG1, kappa)
heavy 1: B1 heavy 1 with Y233H, Y235W
heavy 2: B1 heavy 2
light: B1 light
notes: anti-epiregulin heterodimerized IgG1; also called H240-Kn061 Y234H
B6: H240-Kn061/H240-Hl071/L73-k0 variant with Y235E in H240-Kn061 (antibody, human IgG1, kappa)
heavy 1: B1 heavy 1 with Y234E, Y235W
heavy 2: B1 heavy 2
light: B1 light
notes: anti-epiregulin heterodimerized IgG1; also called H240-Kn061 Y235E
B7: H240-Kn061/H240-Hl071/L73-k0 variant with Y235F in H240-Kn061 (antibody, human IgG1, kappa)
heavy 1: B1 heavy 1 with Y234F, Y235W
heavy 2: B1 heavy 2
light: B1 light
notes: anti-epiregulin heterodimerized IgG1; also called H240-Kn061 Y235F

Tests used:
Assay in all cases: SPR (Biacore); KD of H240-Kn061/H240-Hl071/L73-k0 divided by KD of the variant
[1] = target: T2, FcgRIIIa F (FcγRIIIa type F) extracellular domain with C-terminal His tag (human, UniProt P08637 17-208)
T2 construct: extracellular domain; also called FcγRIIIa F; 3aF; not shown: His tag attached to the C terminus
T2 sequence (P08637 17-208): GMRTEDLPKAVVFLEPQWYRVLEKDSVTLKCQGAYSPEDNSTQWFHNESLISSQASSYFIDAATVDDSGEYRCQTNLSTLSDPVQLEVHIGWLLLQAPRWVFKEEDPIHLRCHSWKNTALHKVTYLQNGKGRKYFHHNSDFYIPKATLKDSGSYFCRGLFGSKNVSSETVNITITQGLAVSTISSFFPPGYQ
Method: (§1) The antibodies were assessed for the binding to each FcgR. […] The resultant value was defined as relative KD, and used as an assessment indicator.
(§2) Analysis of interaction between objective antibody and the FcγR was carried out using Biacore T100 (GE Healthcare), Biacore T200, Biacore A100, and Biacore 4000. HBS-EP+ (GE Healthcare) was used as the running buffer, and the measurement temperature was set to 25° C. Chips produced by immobilizing the antigen peptide by the amine coupling method to a Series S sensor Chip CM5 (GE Healthcare), chips produced by allowing preliminarily biotinylated antigen peptides to interact with and immobilize onto a Series S Sensor Chip SA (certified) (GE Healthcare), chips produced by immobilizing Protein L (ACTIGEN, BioVision) to Series S Sencor Chip CM5 (GE Healthcare), or chips produced by immobilizing Protein A/G (Thermo Scientific) to Series S Sencor Chip CM5 (GE Healthcare) were used. Antibodies of interest were captured onto these chips, and allowed to interact to each FcγR diluted with running buffer.

[2] = target: T1, FcgRIIb (FcγRIIb) extracellular domain …
Method: as §1, §2

[3] = target: T3, FcgRIIIa V (FcγRIIIa type V) extracellular domain with C-terminal His tag (human, UniProt P08637 17-208)
T3 construct: extracellular domain; also called FcγRIIIa V; not shown: His tag attached to the C terminus
T3 sequence (P08637 17-208 F176V limits assumed): as the sequence (P08637 17-208) above, with F160V counted along it
Method: as §1, §2

relative KD [1] [ratio] | relative KD [2] [ratio] | relative KD [3] [ratio] | Binder
0.8 | 0.8 | 1.2 | B1
0.9 | 1 | 0.9 | B2
0.8 | 0.9 | 0.9 | B3
0.8 | 1.2 | 0.9 | B4
0.8 | 1.3 | 0.9 | B5
2.2 | 0.8 | 3.2 | B6
1.3 | 1.2 | 1.5 | B7
